Experimental data as given in article PMC8200818, “SPECT/CT Imaging, Biodistribution and Radiation Dosimetry of a ^177Lu-DOTA-Integrin αvβ6 Cystine Knot Peptide in a Pancreatic Cancer Xenograft Model” (Frontiers in Oncology, 2021).

Experiment: in vivo
Conditions: female, athymic NMRI-Foxn1^nu/Foxn1^nu, mouse, iv, 1 MBq, total radioactivity
Source text: For in vivo experiments, at least 8-week-old female athymic NMRI-Foxn1^nu/Foxn1^nu mice (Janvier Labs, Saint-Berthevin, France) were used. Animal care followed institutional guidelines and all experiments were approved by local animal research authorities. For the generation of tumor xenografts, 5 x 10^6 cells of Capan-2 cells were inoculated subcutaneously into the left and right shoulder (1:1 phosphate-buffered saline [PBS]/Matrigel Basement Membrane Matrix High Concentration, Corning, Corning, USA). Tumors were allowed to grow for two to four weeks (tumor volume > 100 mm^3) after cell inoculation.
Radiolabeling of the DOTA-integrin αvβ6 knottin was carried out manually using [^177Lu]LuCl3 and a reagent kit from ITG Isotope Technologies Garching GmbH (Garching, Germany). A total of 40 µL (stock solution of peptide at 1 µg/µL in 10% DMSO in water) was added to 500 µL of ascorbate buffer solution pH 5.0, prepared from the kit (composition not disclosed by vendor) and the resulting mixture was then added to 35 µL of [^177Lu]LuCl3 (2 GBq in aqueous 0.04 M HCl) and the reaction mixture was heated at 80 °C for 35 minutes followed by cooling for 10 minutes at room temperature. The product was then diluted with 0.5 mL of saline and the pH was adjusted to 7 using a 1 M aqueous solution of NaHCO3 prior to injection in mice. A reverse-phase HPLC system (Knauer GmbH, Germany) with a column (Eurospher II, C18, 250 × 4 mm) was used to determine the radiochemical purity of the radiotracer. The HPLC system was equipped with an Azura P.6.1L pump coupled with ultraviolet (Azura UVD 2.1L) and radiometric (γ-Raytest-Isotopenmessgeraete GmbH, Germany) detectors. The gradient elution system used mobile phase A (100% acetonitrile) and mobile phase B (deionized H2O containing 0.1% trifluoroacetic acid) and a flow rate of 1.0 mL/min. Starting with 0% A and 100% B, the gradient was increased to 100% A over 25 min and finally returned to initial gradient conditions within 5 min.
Tumor-bearing mice (n=4-5 per time point) were injected with approximately 1 MBq (22 pmol) of ^177Lu-DOTA-integrin αvβ6 knottin to the tail vein via a catheter. Mice (n=4-5 per time point) were sacrificed and dissected one, two, three and eight days post injection. Tumor, blood, stomach, pancreas, small intestine, colon, liver, spleen, kidney, heart, lung, muscle and femur samples were weighed and uptake of radioactivity was measured by a gamma counter.

Q: Which tissue uptake at 24 h (blood, Blood activity, 24 h p.i., ~1 MBq i.v., nude mice, Capan-2 xenografts, mean ± SD (4 ≤ n ≤ 5)) does the source give for CC[C@H](C)[C@@H]1NC(=O)[C@@H](NC(=O)CNC(=O)CN2CCN(CC(=O)O)CCN(CC(=O)O)CCN(CC(=O)O)CC2)CSSC[C@@H]2NC(=O)[C@H](C)NC(=O)CNC(=O)[C@@H]3CCCN3C(=O)[C@@H]3CSSC[C@@H](C(=O)NCC(=O)O)NC(=O)[C@H](Cc4ccc(O)cc4)NC(=O)CNC(=O)[C@H](CC(N)=O)NC(=O)CNC(=O)[C@H](CCCNC(=N)N)NC(=O)[C@H](CSSC[C@H](NC(=O)[C@H](CCCNC(=N)N)NC(=O)[C@H](Cc4ccccc4)NC(=O)[C@H](CC(C)C)NC(=O)[C@H](CC(C)C)NC(=O)[C@H]([C@@H](C)O)NC(=O)CNC(=O)[C@H](CC(C)C)NC(=O)[C@H](CC(=O)O)NC(=O)[C@H]([C@@H](C)O)NC(=O)[C@H](CCCNC(=N)N)NC(=O)CNC(=O)[C@H](CC(N)=O)NC(=O)[C@H](CC(C)C)NC1=O)C(=O)N[C@@H](CCCNC(=N)N)C(=O)N[C@@H](CCCNC(=N)N)C(=O)N[C@@H](CC(=O)O)C(=O)N[C@@H](CO)C(=O)N[C@@H](CC(=O)O)C(=O)N3)NC(=O)[C@H]([C@@H](C)CC)NC2=O [^177Lu-DOTA-integrin αvβ6 knottin, metal not drawn] here?
A: 0.01 %ID/g

Q: What about the tissue uptake at 72 h (blood, Blood activity, 72 h p.i., ~1 MBq i.v., nude mice, Capan-2 xenografts, mean ± SD (4 ≤ n ≤ 5)) of the same compound?
A: 0.01 %ID/g

Q: What about the tissue uptake at 24 h (femur, Femur uptake, 24 h p.i., ~1 MBq i.v., nude mice, Capan-2 xenografts, mean ± SD (4 ≤ n ≤ 5)) of the same compound?
A: 0.3 %ID/g

Q: And the tissue uptake at 48 h (femur, Femur uptake, 48 h p.i., ~1 MBq i.v., nude mice, Capan-2 xenografts, mean ± SD (4 ≤ n ≤ 5))?
A: 0.45 %ID/g

Q: What about the tissue uptake at 72 h (femur, Femur uptake, 72 h p.i., ~1 MBq i.v., nude mice, Capan-2 xenografts, mean ± SD (4 ≤ n ≤ 5)) of the same compound?
A: 0.13 %ID/g

Q: What about the tissue uptake at 192 h (femur, Femur uptake, 192 h p.i., ~1 MBq i.v., nude mice, Capan-2 xenografts, mean ± SD (4 ≤ n ≤ 5)) of the same compound?
A: 0.07 %ID/g

Q: And the tissue uptake at 24 h (heart, Heart uptake, 24 h p.i., ~1 MBq i.v., nude mice, Capan-2 xenografts, mean ± SD (4 ≤ n ≤ 5))?
A: 0.16 %ID/g

Q: And the tissue uptake at 48 h (heart, Heart uptake, 48 h p.i., ~1 MBq i.v., nude mice, Capan-2 xenografts, mean ± SD (4 ≤ n ≤ 5))?
A: 0.07 %ID/g

Q: And the tissue uptake at 72 h (heart, Heart uptake, 72 h p.i., ~1 MBq i.v., nude mice, Capan-2 xenografts, mean ± SD (4 ≤ n ≤ 5))?
A: 0.08 %ID/g

Q: And the tissue uptake at 192 h (heart, Heart uptake, 192 h p.i., ~1 MBq i.v., nude mice, Capan-2 xenografts, mean ± SD (4 ≤ n ≤ 5))?
A: 0.04 %ID/g

Q: What about the tissue uptake at 24 h (kidney, Kidney uptake, 24 h p.i., ~1 MBq i.v., nude mice, Capan-2 xenografts, mean ± SD (4 ≤ n ≤ 5)) of the same compound?
A: 19.2 %ID/g

Q: What about the tissue uptake at 48 h (kidney, Kidney uptake, 48 h p.i., ~1 MBq i.v., nude mice, Capan-2 xenografts, mean ± SD (4 ≤ n ≤ 5)) of the same compound?
A: 12.5 %ID/g

Q: And the tissue uptake at 72 h (kidney, Kidney uptake, 72 h p.i., ~1 MBq i.v., nude mice, Capan-2 xenografts, mean ± SD (4 ≤ n ≤ 5))?
A: 14.7 %ID/g

Q: And the tissue uptake at 192 h (kidney, Kidney uptake, 192 h p.i., ~1 MBq i.v., nude mice, Capan-2 xenografts, mean ± SD (4 ≤ n ≤ 5))?
A: 2.28 %ID/g

Q: What about the tissue uptake at 24 h (kidney, Kidney uptake, day 1 p.i., ~1 MBq i.v., Capan-2 xenograft mice) of the same compound?
A: 19.2 ± 2.5 %ID/g

Q: What about the tissue uptake at 72 h (kidney, Kidney uptake, day 3 p.i., ~1 MBq i.v., Capan-2 xenograft mice) of the same compound?
A: 14.7 ± 4.5 %ID/g

Q: What about the tissue uptake at 192 h (kidney, Kidney uptake, day 8 p.i., ~1 MBq i.v., Capan-2 xenograft mice) of the same compound?
A: 2.3 ± 0.4 %ID/g

Q: And the tissue uptake at 24 h (lung, Lung uptake, 24 h p.i., ~1 MBq i.v., nude mice, Capan-2 xenografts, mean ± SD (4 ≤ n ≤ 5))?
A: 1.74 %ID/g

Q: And the tissue uptake at 48 h (lung, Lung uptake, 48 h p.i., ~1 MBq i.v., nude mice, Capan-2 xenografts, mean ± SD (4 ≤ n ≤ 5))?
A: 0.53 %ID/g

Q: And the tissue uptake at 72 h (lung, Lung uptake, 72 h p.i., ~1 MBq i.v., nude mice, Capan-2 xenografts, mean ± SD (4 ≤ n ≤ 5))?
A: 0.52 %ID/g

Q: What about the tissue uptake at 192 h (lung, Lung uptake, 192 h p.i., ~1 MBq i.v., nude mice, Capan-2 xenografts, mean ± SD (4 ≤ n ≤ 5)) of the same compound?
A: 0.06 %ID/g

Q: What about the tissue uptake at 24 h (muscle, Muscle uptake, 24 h p.i., ~1 MBq i.v., nude mice, Capan-2 xenografts, mean ± SD (4 ≤ n ≤ 5)) of the same compound?
A: 0.26 %ID/g

Q: What about the tissue uptake at 48 h (muscle, Muscle uptake, 48 h p.i., ~1 MBq i.v., nude mice, Capan-2 xenografts, mean ± SD (4 ≤ n ≤ 5)) of the same compound?
A: 0.11 %ID/g

Q: What about the tissue uptake at 72 h (muscle, Muscle uptake, 72 h p.i., ~1 MBq i.v., nude mice, Capan-2 xenografts, mean ± SD (4 ≤ n ≤ 5)) of the same compound?
A: 0.1 %ID/g

Q: What about the tissue uptake at 192 h (muscle, Muscle uptake, 192 h p.i., ~1 MBq i.v., nude mice, Capan-2 xenografts, mean ± SD (4 ≤ n ≤ 5)) of the same compound?
A: 0.04 %ID/g

Q: And the tissue uptake at 24 h (pancreas, Pancreas uptake, 24 h p.i., ~1 MBq i.v., nude mice, Capan-2 xenografts, mean ± SD (4 ≤ n ≤ 5))?
A: 0.65 %ID/g

Q: And the tissue uptake at 48 h (pancreas, Pancreas uptake, 48 h p.i., ~1 MBq i.v., nude mice, Capan-2 xenografts, mean ± SD (4 ≤ n ≤ 5))?
A: 0.17 %ID/g

Q: And the tissue uptake at 72 h (pancreas, Pancreas uptake, 72 h p.i., ~1 MBq i.v., nude mice, Capan-2 xenografts, mean ± SD (4 ≤ n ≤ 5))?
A: 0.29 %ID/g

Q: What about the tissue uptake at 192 h (pancreas, Pancreas uptake, 192 h p.i., ~1 MBq i.v., nude mice, Capan-2 xenografts, mean ± SD (4 ≤ n ≤ 5)) of the same compound?
A: 0.03 %ID/g

Q: And the tissue uptake at 192 h (spleen, Spleen uptake, 192 h p.i., ~1 MBq i.v., nude mice, Capan-2 xenografts, mean ± SD (4 ≤ n ≤ 5))?
A: 0.04 %ID/g

Q: And the tissue uptake at 24 h (stomach, Stomach uptake, 24 h p.i., ~1 MBq i.v., nude mice, Capan-2 xenografts, mean ± SD (4 ≤ n ≤ 5))?
A: 1.92 %ID/g

Q: What about the tissue uptake at 48 h (stomach, Stomach uptake, 48 h p.i., ~1 MBq i.v., nude mice, Capan-2 xenografts, mean ± SD (4 ≤ n ≤ 5)) of the same compound?
A: 1.01 %ID/g

Q: What about the tissue uptake at 72 h (stomach, Stomach uptake, 72 h p.i., ~1 MBq i.v., nude mice, Capan-2 xenografts, mean ± SD (4 ≤ n ≤ 5)) of the same compound?
A: 0.83 %ID/g

Q: And the tissue uptake at 192 h (stomach, Stomach uptake, 192 h p.i., ~1 MBq i.v., nude mice, Capan-2 xenografts, mean ± SD (4 ≤ n ≤ 5))?
A: 0.14 %ID/g

Q: What about the tissue uptake at 24 h (tail, Tail activity, 24 h p.i., ~1 MBq i.v., nude mice, Capan-2 xenografts, mean ± SD (4 ≤ n ≤ 5)) of the same compound?
A: 0.31 %ID/g

Q: And the tissue uptake at 48 h (tail, Tail activity, 48 h p.i., ~1 MBq i.v., nude mice, Capan-2 xenografts, mean ± SD (4 ≤ n ≤ 5))?
A: 0.2 %ID/g

Q: What about the tissue uptake at 24 h (tumor, Tumor uptake, 24 h p.i., ~1 MBq (22 pmol) i.v., nude mice, Capan-2 xenografts, mean ± SD (4 ≤ n ≤ 5)) of the same compound?
A: 3.13 %ID/g

Q: And the tissue uptake at 24 h (tumor, Tumor uptake, day 1 p.i., ~1 MBq i.v., Capan-2 xenografts, mean ± S.E.M.)?
A: 3.1 ± 0.6 %ID/g

Q: What about the tissue uptake at 48 h (tumor, Tumor uptake, day 2 p.i., ~1 MBq i.v., Capan-2 xenografts, mean ± S.E.M.) of the same compound?
A: 2.5 ± 0.4 %ID/g

Q: What about the tissue uptake at 72 h (tumor, Tumor uptake, day 3 p.i., ~1 MBq i.v., Capan-2 xenografts, mean ± S.E.M.) of the same compound?
A: 3.5 ± 0.9 %ID/g

Q: And the tissue uptake at 192 h (tumor, Tumor uptake, day 8 p.i., ~1 MBq i.v., Capan-2 xenografts, mean ± S.E.M.)?
A: 1.2 ± 0.2 %ID/g
